No end group written: not given here.
Experiments:
[1] = test system: A2t (annexin A2 heterotetramer); test: EPR binding of L2 peptide to A2t; parameters: species or system human; conditions: scrambled competitor 5∶1 molar ratio
From the text: Next, we wanted to determine if there was a specific interaction between the L2_108–126 peptide and A2t using electron paramagnetic resonance (EPR) spectroscopy. EPR is a method of magnetic resonance spectroscopy measuring unpaired electrons whose underlying basic concepts are not unlike the more widely used technique of nuclear magnetic resonance (NMR) (reviewed in [43]). When coupled with site-directed paramagnetic-labeling, such as the attachment of a moiety with an unpaired electron to a cysteine residue, EPR can be used to obtain structural information within a small vicinity of the paramagnetic-label’s positions along the protein sequence. As a paramagnetic-label becomes locally constrained, such as when bound to another protein, its spectra will drastically change as visualized by a decrease in line amplitude and increased line-broadening. Therefore, EPR provides an in vitro biochemical method that measures protein-protein interactions by monitoring changes in the spectra recorded for a labeled protein in different experimental settings.
For our purposes, an N-terminal cysteine (with a 3 native aa spacer) contained in the L2_108–126 peptide (C-IVS-[…]) was paramagnetic-labeled (an unpaired-electron-containing small molecule was cross-linked via a disulfide bond to the peptide), and its spectra were analyzed after incubation with and without purified human recombinant A2t or controls. […]
Recombinant annexin A2 was expressed in BL21(DE3) Escherichia coli cells and purified using reversible Ca^2+-dependent binding to negatively charged phospholipid vesicles followed by size exclusion chromatography. […] Concentrations of all proteins and peptides, including the A2t complex, were determined using bicinchoninic acid assays (Pierce Thermo Scientific, Rockford, IL) compared to measured absorbance of albumin standards at 562 nm. […]

annexin A2 = test: EPR binding of L2 peptide to annexin A2; conditions: scrambled competitor 5∶1
Method: (§1) Recombinant annexin A2 was expressed in BL21(DE3) Escherichia coli cells and purified using reversible Ca^2+-dependent binding to negatively charged phospholipid vesicles followed by size exclusion chromatography. A pET23A vector containing the S100A10 sequence (a gift from Volker Gerke) was expressed in BL21(DE3) cells as previously described. Both proteins were stored at 4°C in 20 mM HEPES buffer at pH 7.4, containing 100 mM NaCl with the addition of 1 mM dithiothreitol. Concentrations of all proteins and peptides, including the A2t complex, were determined using bicinchoninic acid assays (Pierce Thermo Scientific, Rockford, IL) compared to measured absorbance of albumin standards at 562 nm. Purified annexin A2 and S100A10 were combined at a molar ratio of 1∶1 and concentrated to over 8 µg/µl. The mixture was incubated overnight at 4°C, and then loaded onto a superdex 200 10/300 GL (GE Healthcare USA) column equilibrated in the previously mentioned HEPES buffer. The eluted A2t peak was collected and subjected to peptide binding assays.
The L2_108–126 peptides used in our EPR studies were synthesized with a cysteine at the N-terminus, and followed by a spacer of 3 physiological amino acids (C-IVS) preceding the canonical L2_108–126 and L2 scrambled sequences (C-IVS-[…] and C-IVS-[…] respectively). Peptides were combined with 8× molar excess paramagnetic label (1-oxyl-2, 2, 5, 5-tetramethyl-Δ3-pyrroline-3-methyl) (R1) methanethiosulfonate (MTSL), (Toronto Research Chemicals, Canada) and left to react overnight at 4°C. Free label was removed by gel filtration (PD10 GE, United Kingdom). All peptides were solubilized into HEPES buffer. For competition assays, the scrambled peptide was non-paramagnetic labeled with an N-acetylated MTSL paramagnetic-label analog (1-acetyl-2,2,5,5- tetramethyl-Δ3-pyrroline-3-methyl) (R1′) at an 8× molar excess to emulate the paramagnetic label on control peptides. Binding interactions were examined by combining paramagnetically-labeled L2 peptide with A2t, BSA, ANXA2, or S100A10 (20 µM, 100 µM, 100 µM, 100 µM, and 100 µM respectively) in 10 µL volumes of the HEPES buffer, confined by glass capillaries, and measured at room temperature over a period of 24 hours using a Bruker EMX X-band EPR spectrometer. For the cysteine blocked S100A10, S100A10 was treated with R1′ and excess label was removed via gel filtration (see above) before the addition of paramagnetic labeled peptides. […] To quantify the amount of bound peptide spectra of all tested proteins in combination with the L2_108–126 or ScrL2 peptides were compared to the spectra of L2_108–126 or ScrL2 peptides alone in solution using a spectra analyzing software (EPR 130, University of California, Los Angeles). […]

S100A10 subunit of A2t = test: EPR binding of L2 peptide to S100A10; conditions: EPR
Method: as §1
The L2_108–126 peptides used in our EPR studies were synthesized with a cysteine at the N-terminus, and followed by a spacer of 3 physiological amino acids (C-IVS) preceding the canonical L2_108–126 and L2 scrambled sequences (C-IVS-[…] and C-IVS-[…] respectively). Peptides were combined with 8× molar excess paramagnetic label (1-oxyl-2, 2, 5, 5-tetramethyl-Δ3-pyrroline-3-methyl) (R1) methanethiosulfonate (MTSL), (Toronto Research Chemicals, Canada) and left to react overnight at 4°C. Free label was removed by gel filtration (PD10 GE, United Kingdom). All peptides were solubilized into HEPES buffer. For competition assays, the scrambled peptide was non-paramagnetic labeled with an N-acetylated MTSL paramagnetic-label analog (1-acetyl-2,2,5,5- tetramethyl-Δ3-pyrroline-3-methyl) (R1′) at an 8× molar excess to emulate the paramagnetic label on control peptides. Binding interactions were examined by combining paramagnetically-labeled L2 peptide with A2t, BSA, ANXA2, or S100A10 (20 µM, 100 µM, 100 µM, 100 µM, and 100 µM respectively) in 10 µL volumes of the HEPES buffer, confined by glass capillaries, and measured at room temperature over a period of 24 hours using a Bruker EMX X-band EPR spectrometer. For the cysteine blocked S100A10, S100A10 was treated with R1′ and excess label was removed via gel filtration (see above) before the addition of paramagnetic labeled peptides. The experiments were done in triplicate with measurements taken at 12 db, in 5 scan intervals. All spectra were normalized to the same number of scans. To quantify the amount of bound peptide spectra of all tested proteins in combination with the L2_108–126 or ScrL2 peptides were compared to the spectra of L2_108–126 or ScrL2 peptides alone in solution using a spectra analyzing software (EPR 130, University of California, Los Angeles). By subtracting the alone peptide spectra from that of the combined samples we derive the spectra of the bound spectra, and based on double integration, relate this spectra to a concentration of the peptide that bound to the target protein.

[2] = test system: HPV16 infection of COS-1 cells; conditions: pre-incubation, compared to control peptides; ref [28]; cited from earlier work
From the text: Though the interaction between L1 and HSPG appears to be the primary initiator of epithelial cell infection, the electrostatic interaction to the negatively charged polysaccharides is generally thought to be non-specific, and may lead to a cascade of subsequent capsid conformational changes.

[3] = target: T1, annexin A2 heterotetramer (A2t), purified human recombinant (human, UniProt P07355 1-339; P60903 1-97); test: cell-based or functional assay
T1 sequence (P07355 whole entry, chain 1 of 2): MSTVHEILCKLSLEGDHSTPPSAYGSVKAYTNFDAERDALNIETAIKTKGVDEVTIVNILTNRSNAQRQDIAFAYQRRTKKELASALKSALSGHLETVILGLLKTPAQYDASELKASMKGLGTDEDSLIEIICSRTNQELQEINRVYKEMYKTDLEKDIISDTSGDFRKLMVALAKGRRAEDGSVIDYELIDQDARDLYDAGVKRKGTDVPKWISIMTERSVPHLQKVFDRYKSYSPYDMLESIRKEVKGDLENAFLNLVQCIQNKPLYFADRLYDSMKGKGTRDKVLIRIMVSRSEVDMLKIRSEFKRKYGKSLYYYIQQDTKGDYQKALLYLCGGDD
T1 sequence (P60903 whole entry, chain 2 of 2): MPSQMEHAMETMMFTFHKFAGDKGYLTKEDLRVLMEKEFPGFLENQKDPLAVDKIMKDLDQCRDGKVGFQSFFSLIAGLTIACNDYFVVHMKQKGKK

[4] = target: T1, annexin A2 heterotetramer (A2t), …; test: electron paramagnetic resonance (EPR) spectroscopy; conditions: both partners purified
recombinant annexin A2 [5] = target: T2, recombinant annexin A2 (human, UniProt P07355 1-339); test: electron paramagnetic resonance (EPR) spectroscopy; conditions: both partners purified
T2 construct: also called ANXA2; annexin A2 subunit
T2 sequence (P07355 whole entry): as the sequence (P07355 whole entry, chain 1 of 2) above

recombinant S100A10 [6] = target: T3, recombinant S100A10 (human, UniProt P60903 1-97); test: electron paramagnetic resonance (EPR) spectroscopy; conditions: both partners purified
T3 construct: also called S100A10 subunit; p11; source: E. coli BL21(DE3), pET23A vector, purified
T3 sequence (P60903 whole entry): as the sequence (P60903 whole entry, chain 2 of 2) above

[7] = target: T1, annexin A2 heterotetramer (A2t), …; test: electron paramagnetic resonance (EPR) spectroscopy; paramagnetic-labeled peptide (20 µM) mixed with protein (100 µM) in 10 µL HEPES buffer (20 mM HEPES pH 7.4, 100 mM NaCl) in glass capillaries, room temperature; percent bound from subtraction of the free-peptide spectrum and double integration; 'relative' binding constant K = [AB]/[A][B]; conditions: both partners purified
recombinant annexin A2 [8] = target: T2, recombinant annexin A2; test: as above; conditions: both partners purified
recombinant S100A10 [9] = target: T3, recombinant S100A10; test: as above; conditions: both partners purified
[10] = target: T4, cysteine-blocked S100A10 (αCys-S100A10) (human, UniProt P60903 1-97); test: as above; conditions: both partners purified
T4 construct: source: E. coli BL21(DE3), purified, then treated with R1′ and gel filtered
T4 sequence (P60903 whole entry): as the sequence (P60903 whole entry, chain 2 of 2) above

C-IVS-IESPVSDTALGTPEIFVSA [ScrL2, scrambled version of the L2_108–126 peptide, reference compound]
competition for L2_108–126 – A2t interaction [1]: No significant changes in spectra signal were observed | competition for L2 peptide – annexin A2 interaction (annexin A2): partially competed off | relative % bound to cysteine-blocked S100A10 (S100A10 subunit of A2t; S100A10 cysteine-blocked with R1′ (αCys-S100A10), paramagnetic-labeled peptide, mean of three separate experiments): 6.3% | competition for L2 peptide – S100A10 interaction (S100A10 subunit of A2t; scrambled competitor 5∶1): minimally competed off

L2_108–120: L2_108–120 peptide of ref 28 (LVEETSFIDAGAP; UniProt P03107 108-120, looked up, fragment)
reduction of infection of COS-1 cells [2]: approximately 60%

B1: HPV16 L1–L2(GGDD) mutant pseudovirions (complex, human papillomavirus type 16)
chain 1: MSLWLPSEATVYLPPVPVSKVVSTDEYVARTNIYYHAGTSRLLAVGHPYFPIKKPNNNKILVPKVSGLQYRVFRIHLPDPNKFGFPDTSFYNPDTQRLVWACVGVEVGRGQPLGVGISGHPLLNKLDDTENASAYAANAGVDNRECISMDYKQTQLCLIGCKPPIGEHWGKGSPCTNVAVNPGDCPPLELINTVIQDGDMVDTGFGAMDFTTLQANKSEVPLDICTSICKYPDYIKMVSEPYGDSLFFYLRREQMFVRHLFNRAGAVGENVPDDLYIKGSGSTANLASSNYFPTPSGSMVTSDAQIFNKPYWLQRAQGHNNGICWGNQLFVTVVDTTRSTNMSLCAAISTSETTYKNTNFKEYLRHGEEYDLQFIFQLCKITLTADVMTYIHSMNSTILEDWNFGLQPPPGGTLEDTYRFVTSQAIACQKHTPPAPKEDPLKKYTFWEVNLKEKFSADLDQFPLGRKFLLQAGLKAKPKFTLGKRKATPTTSSTSTTAKRKKRKL
chain 2: MRHKRSAKRTKRASATQLYKTCKQAGTCPPDIIPKVEGKTIAEQILQYGSMGVFFGGLGIGTGSGTGGRTGYIPLGTRPPTATDTLAPVRPPLTVDPVGPSDPSIVSGGDDTSFIDAGAPTSVPSIPPDVSGFSITTSTDTTPAILDINNTVTTVTTHNNPTFTDPSVLQPPTPAETGGHFTLSSSTISTHNYEEIPMDTFIVSTNPNTVTSSTPIPGSRPVARLGLYSRTTQQVKVVDPAFVTTPTKLITYDNPAYEGIDVDNTLYFSSNDNSINIAPDPDFLDIVALHRPALTSRRTGIRYSRIGNKQTLRTRSGKSIGAKVHYYYDLSTIDPAEEIELQTITPSTYTTTSHAASPTSINNGLYDIYADDFITDTSTTPVPSVPSTSLSGYIPANTTIPFGGAYNIPLVSGPDIPINITDQAPSLIPIVPGSPQYTIIADAGDFYLHPSYYMLRKRRKRLPYFFSDVSLAA
pseudo-infection of HaCaT cells (percent GFP-positive, 48 h) by the mutant PsV against wild-type PsV [3]: > 10 fold reduction

B2: HPV16 L2_(108–126) peptide, paramagnetic-labeled (C-IVS-LVEETSFIDAGAPTSVPSI) (peptide)
peptide: CIVSLVEETSFIDAGAPTSVPSI
modifications: also: paramagnetic label, site not given here
notes: source: synthetic peptide (Synthetic Biomolecules or Biomer Technology), HPLC purified to >95%
percent of peptide bound with ScrL2 at 5:1 [4]: 75.8% | percent of peptide bound with ScrL2 at 5:1 (recombinant annexin A2 [5]): 17.7% | percent of peptide bound with ScrL2 at 5:1 (recombinant S100A10 [6]): 91% | Ka [7]: 100000 M⁻¹ | percent of peptide bound [7]: 78% | percent of peptide bound (recombinant annexin A2 [8]): 23.6% | Ka (recombinant S100A10 [9]): 150000 M⁻¹ | percent of peptide bound (recombinant S100A10 [9]): 92.5% | percent of peptide bound [10]: 73.1%

Reference: paper PMC3425544, “The S100A10 Subunit of the Annexin A2 Heterotetramer Facilitates L2-Mediated Human Papillomavirus Infection” (PLoS ONE, 2012)
